Patent US20240279290A1
“And” between values parts separate entries of the source, which are not always exact repeats. Equal values may be shown once.

Biological target: human CD40 on primary human B cells or monocyte-derived dendritic cells (human) (UniProt P25942)
Assay: cell-based or functional assay

Sequence of human CD40 on primary human B cells or monocyte-derived dendritic cells (human) (P25942 21-277 H80K/K81H limits assumed): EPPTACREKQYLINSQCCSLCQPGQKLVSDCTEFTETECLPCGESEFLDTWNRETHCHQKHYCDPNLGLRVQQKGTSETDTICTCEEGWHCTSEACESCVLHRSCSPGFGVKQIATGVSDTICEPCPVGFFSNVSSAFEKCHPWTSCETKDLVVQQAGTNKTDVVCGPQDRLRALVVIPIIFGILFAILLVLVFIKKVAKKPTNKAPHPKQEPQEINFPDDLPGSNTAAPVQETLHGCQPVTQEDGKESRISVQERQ

## anti-CD40 monoclonal antibody corresponding to sequence 21.4.1 of U.S. Pat. No. 7,338,660 B2
  EC50 [nM], % CD86, human B cells + FAP-CHO, w HSA: 0.88 nM and 0.3 nM
  EC50 [nM], % CD86, human B cells + FAP-CHO, w/o HSA: 1.9 nM and 0.51 nM
  EC50 [nM], MFI CD86, human B cells + FAP-CHO, w HSA: 0.51 nM and 2.05 nM
  EC50 [nM], MFI CD86, human B cells + FAP-CHO, w/o HSA: 1.13 nM and 4.73 nM
  Efficacy [MFI at highest dose], MFI CD86, human B cells + FAP-CHO, w HSA: 1530 MFI and 1870 MFI
  Efficacy [MFI at highest dose], MFI CD86, human B cells + FAP-CHO, w/o HSA: 1340 MFI and 2060 MFI
  Efficacy [MFI at highest dose], MFI CD86, human B cells + WT-CHO (no FAP), w HSA: 1900 MFI and 1470 MFI
  Efficacy [MFI at highest dose], MFI CD86, human B cells + WT-CHO (no FAP), w/o HSA: 2050 MFI and 1390 MFI
